Results reported in patent US20060039918A1 (University of California, published 2006).
[ ]: non-standard residue; d: D form. The star is where a group is joined. Biotin = O=C1N[C@H]2[C@H](CS[C@H]2CCCCC(=O)*)N1; code J = not defined here

Target: T1, HLA DRB1*0401 molecules (biotinylated recombinant HLA-DR4) (human)
T1 construct: Recombinant and biotinylated; also called biotinylated recombinant MHC
Assay: loading of biotinylated recombinant HLA-DR4 with peptide for aAPCs and tetramers

Binder	binding result
Biotin-[code U]A[code J]AAAATLKAA-NH2 (reading uncertain, Synthetic control peptide used to set the background in the T cell capture assay; also called negative control PADRE (-)) [PADRE (-) peptide (UAJAAAATLKAA)]	binds
Biotin-QKRAAYDQYGHAAFE-NH2 (SMILES C[C@H](NC(=O)[C@H](C)NC(=O)[C@H](Cc1c[nH]cn1)NC(=O)CNC(=O)[C@H](Cc1ccc(O)cc1)NC(=O)[C@H](CCC(N)=O)NC(=O)[C@H](CC(=O)O)NC(=O)[C@H](Cc1ccc(O)cc1)NC(=O)[C@H](C)NC(=O)[C@H](C)NC(=O)[C@H](CCCNC(=N)N)NC(=O)[C@H](CCCCN)NC(=O)[C@H](CCC(N)=O)NC(=O)CCCC[C@@H]1SC[C@@H]2NC(=O)N[C@@H]21)C(=O)N[C@@H](Cc1ccccc1)C(=O)N[C@@H](CCC(=O)O)C(N)=O, Synthetic peptide) [dnaJP1 peptide (QKRAAYDQYGHAAFE)]	binds
